Consider three molecules from paper PMC6325625, “The traffic ATPase PilF interacts with the inner membrane platform of the DNA translocator and type IV pili from Thermus thermophilus” (FEBS Open Bio, 2018).

The target of test [1] is PilM (Thermus thermophilus, UniProt Q72IW8). The test is described as follows: luciferase assay of co-purified ATP after TCA precipitation; also UV photo cross-linking with [alpha-32P]-ATP. It is filed as binding. As to conditions: ATP retained from E. coli, none added.
In test [2] the target is T1, PilM (Thermus thermophilus, UniProt Q72IW8, K26A).
T1 construct: full length, N-terminal His6 tag kept; pET28a, E. coli BL21 (DE3), Ni-NTA from the soluble fraction of cells co-expressing pilN-Strep; about 44 kDa monomer
T1 sequence (Q72IW8 entry or part of it K26A): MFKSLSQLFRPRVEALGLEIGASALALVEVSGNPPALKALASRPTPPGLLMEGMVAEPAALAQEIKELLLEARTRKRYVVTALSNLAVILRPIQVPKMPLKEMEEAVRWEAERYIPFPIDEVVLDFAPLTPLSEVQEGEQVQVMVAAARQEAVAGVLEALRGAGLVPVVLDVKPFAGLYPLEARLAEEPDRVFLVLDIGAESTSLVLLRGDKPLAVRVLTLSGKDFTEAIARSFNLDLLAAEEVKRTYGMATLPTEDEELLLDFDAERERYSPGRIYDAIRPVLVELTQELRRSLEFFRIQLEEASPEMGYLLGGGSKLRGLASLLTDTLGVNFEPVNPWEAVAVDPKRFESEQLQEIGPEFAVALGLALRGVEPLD
The test is described as follows: UV photo cross-linking and autoradiography; luciferase ATP content. As to conditions: labelled compound [alpha-32P]-ATP; MN buffer pH 7.5, 5 mM MgCl2, 0.02% DDM, on ice; binding not detected.

The target of test [3] is His6-PilM(K26A)-PilN-Strep complex (Thermus thermophilus HB27) (UniProt Q8VRL8).
The target in test [4] is His6-PilF (traffic ATPase PilF, hexameric complex) (Thermus thermophilus). The test is described as follows: native gel or EMSA; clear-native PAGE (3-15%) of purified His6-PilF; data not shown.
The target of test [5] is His6-PilM-PilN-Strep complex (Thermus thermophilus HB27) (UniProt Q8VRL8).
Test [6] addresses PilN-Strep (Thermus thermophilus HB27) (UniProt Q8VRL7). The test is described as follows: native gel or EMSA; 5-20% clear-native PAGE of purified His6-PilMN-Strep, His6-PilMNO-Strep and His6-PilM; bands of PilMN cut out and run on 14% SDS/PAGE.

For `Nc1ncnc2c1ncn2[C@@H]1O[C@H](COP(=O)(O)OP(=O)(O)OP(=O)(O)O)[C@@H](O)[C@H]1O` [ATP], the “ATP per PilM monomer” value in test [1] stood at 0.89 ± 0.35 ATP per PilM monomer. For the same molecule, the “UV photo cross-linking and autoradiography; luciferase ATP content” value in test [2] is given as “no ATP was found in the PilMK26A variant”.

As for “His6-PilF (traffic ATPase PilF, hexameric complex) (enzyme)”, the ATPase activity of the PilF hexamer mixed with PilM (K26A)N complex in a ratio of 1 : 20 in test [3] came to 2 fold. In addition, the stoichiometry N in test [4] was 6. Also, in test [5], the ATPase activity of PilF (malachite green assay, 68 °C, 66.7 pmol PilF hexamer) with increasing amounts of PilMN, up to a ratio of 1 : 20 (PilF complex : PilMN complex) turned out to be 2 fold.

B1: His6-PilM (soluble PilM from cells expressing His6-pilMN-Strep) (natural protein)
chain: MFKSLSQLFRPRVEALGLEIGASALKLVEVSGNPPALKALASRPTPPGLLMEGMVAEPAALAQEIKELLLEARTRKRYVVTALSNLAVILRPIQVPKMPLKEMEEAVRWEAERYIPFPIDEVVLDFAPLTPLSEVQEGEQVQVMVAAARQEAVAGVLEALRGAGLVPVVLDVKPFAGLYPLEARLAEEPDRVFLVLDIGAESTSLVLLRGDKPLAVRVLTLSGKDFTEAIARSFNLDLLAAEEVKRTYGMATLPTEDEELLLDFDAERERYSPGRIYDAIRPVLVELTQELRRSLEFFRIQLEEASPEMGYLLGGGSKLRGLASLLTDTLGVNFEPVNPWEAVAVDPKRFESEQLQEIGPEFAVALGLALRGVEPLD
In the case of B1, in test [6], the stoichiometry N was 1 PilM : PilN and the stoichiometry PilM : PilN of the larger (~195 kDa) oligomer, copies of each chain (copies of each chain) came to 3.
